Experimental data: paper PMC12240383, “Human herpesvirus 6B glycoprotein B postfusion structure, vulnerability mapping, and receptor recognition” (PLOS Pathogens, 2025)

B1: HHV-6B gB ectodomain (residues 1-680, strain Z29) with fusion loop substitutions, C-terminal His-tag (domain or fragment)
chain: IYCDSDDYIRAGYNHKYPFRICSIAKGTDLMRFDRDISCSPYKSNAKMSEGFFIIYKTNIETYTFPVRTYKNELTFPTSYRDHRTTYFLDRTVMGLAMPVYEANLVNSRAQCYSAVAIKRPDGTVFSAYHEDNNKNETLELFPLNFKSVTNKRFITTKEPYFARGPLATHSTSTSLNCIVTEATAKAKYPFSYFALTTGEIVEGSPFFDGSNGKHFAEPLEKLTILENYTMIEDLMNGMNGATTLVRKIAFLEKGDTLFSWEIKEENESVCMLKHWTTVTHGLRAETDETYHFISKELTAAFVASKESLNLTDPKQTCIKNEFEKIITDVYMSDYNDAYSMNGSYQIFKTTGDLILIWQPLVQKSLMVLEQGSVNLRRRRDLVDVKSRHDILYVQLQYLYDTLKDYINDALGNLAESWCLDQKRTITMLHELSKISPSSIVSEVYGRPISAQLHGDVLAISKCIEVNQSSVQLYKSMRVVDAKGVRSETMCYNRPLVTFSFVNSTPEVVLGQLGLDNEILLGDHRTEECEIPSTKIFLSGNHAHVYTDYTHTNSTPIEDIEVLDAFIRLKIDPLENADFKLLDLYSPDELSRANVFDLENILREYNSYKSALYTIEAKIATNTPSYVNGINSFLQGLGAIGTGLGSVISVTAGALGDIVGG
notes: signal peptide in the construct (predicted signal peptide residues 1-19); glycoprotein B of human herpesvirus 6B strain Z29, ectodomain residues 1-680; furin site 396RRRR|D400 not mutated, mostly uncleaved; also called HHV-6B gB-His; HHV-6B gB680-mut; source: Expi293F, transiently transfected, purified from supernatant (Ni Sepharose IMAC, Superdex 200 SEC); not shown: His6, C-terminal, kept
B2: human nectin-2 V-set domain (residues 1-158) fused with the Fc region of human IgG (Fc fusion)
chain: QDVRVQVLPEVRGQLGGTVELPCHLLPPVPGLYISLVTWQRPDAPANHQNVAAFHPKMGPSFPSPKPGSERLSFVSAKQSTGQDTEAELQDATLALHGLTVEDEGNYTCEFATFPKGSVRGMTWLRV
notes: signal peptide in the construct; human nectin cell adhesion molecule 2 (nectin-2), V-set domain, residues 1-158; also called V-set-Fc; source: Expi293F, transiently transfected, purified from supernatant (protein G resin, SEC)

Tests used:
[1] = target: the molecule itself; experiment: cryo-EM structure; HHV-6B gB-His at 10 mg/ml in PBS with 0.1% DDM; single-particle analysis, C3 symmetry applied, 2.8 Å; postfusion trimer
[2] = target: B1; experiment: co-IP; purified proteins: 4 µg V-set-Fc with 8 µg HHV-6B gB (His- or Flag-tagged), 4°C 2 h, protein G beads overnight at 4°C; six washes in 50 mM HEPES pH 7.4, 150 mM NaCl, 5 mM EDTA, 0.5% NP40; immunoblot with anti-human IgG and anti-His or anti-Flag; conditions: both partners purified
[3] = target: T1, HHV-6B gB ectodomain (residues 1-680, strain Z29) with fusion loop substitutions, C-terminal Flag-tag (Human herpesvirus 6B (strain Z29), UniProt P36320 20-680, VGVV102-105 to HRTT | WLY187-189 to ATH); experiment: as above; conditions: both partners purified
T1 construct: signal peptide in the construct (predicted signal peptide residues 1-19); glycoprotein B of human herpesvirus 6B strain Z29, ectodomain residues 1-680; Same ectodomain as m1 (a trimer in the structure) with a Flag-tag instead of the His-tag; also called HHV-6B gB-Flag; wild-type HHV-6B gB-Flag; source: Expi293F, transiently transfected, purified from supernatant (Flag beads, 3xFlag peptide …)
T1 sequence: B1 chain

Binder	stoichiometry N [1]	binding result [2]	binding result [3]
B1	3		
B2		binds	binds
